Laboratory results reported in patent publication US20200289416.

Target: T1, MMP-Ac2-26 PA (C16V2A2E2-GGGPQGIWGQGK-AMVSEFLKQAWFIENEEQEYVQTVK-NH2)
T1 chain: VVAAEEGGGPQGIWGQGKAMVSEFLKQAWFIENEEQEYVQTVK

B1: human recombinant MMP2 (protein)
chain: YNFFPRKPKWDKNQITYRIIGYTPDLDPETVDDAFARAFQVWSDVTPLRFSRIHDGEADIMINFGRWEHGDGYPFDGKDGLLAHAFAPGTGVGGDSHFDDDELWTLGEGQVVRVKYGNADGEYCKFPFLFNGKEYNSCTDTGRSDGFLWCSTTYNFEKDGKYGFCPHEALFTMGGNAEGQPCKFPFRFQGTSYDSCTTEGRTDGYRWCGTTEDYDRDKKYGFCPETAMSTVGGNSEGAPCVFPFTFLGNKYESCTSAGRSDGKMWCATTANYDDDRKWGFCPDQGYSLFLVAAHEFGHAMGLEHSQDPGALMAPIYTYTKNFRLSQDDIKGIQELYGASPDIDLGTGPTPTLGPVTPEICKQDIVFDGIAQIRGEIFFFKDRFIWRTVTPRDKPMGPLLVATFWPELPEKIDAVYEAPQEEKAVFFAGNEYWIYSASTLERGYPKPLTSLGLPPDVQRVDAAFNWSKNKKTYIFAGDKFWRYNEVKKKMDPGFPKLIADAWNAIPDNLDAVVDLQGGGHSYFFKGAYYLKLENQSLKSVKFGSIKSDWLGC
Ac2-26 release from PA nanofibers (cleavage assay, LC-MS): The MMP-Ac2-26 PA nanofibers released Ac2-26 after 24 hours of treatment with 40 nM MMP2
